Results as given in the supplement of paper PMC9170038.

Tested on: K4 kissing-loop RNA reporter
Experiment: apparent KD of K4 kissing-loop reporter; higher = weaker reporter binding
Settings: Eterna round: R107
Experimental: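 RNA-MaP round R107: designed RNA switches with theophylline, tryptophan, arginine or FMN aptamers are transcribed on-chip within common flanks. They are titrated with a labelled K4 kissing-loop RNA reporter in RNA-MaP buffer (100 mM Tris pH 7.5, 80 mM KCl, 4 mM MgCl2), without ligand or with the indicated ligand. Median apparent KD per design.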

[1] = input ligand: theophylline 20 uM
[2] = input ligand: tryptophan 2.4 mM
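Further: bound reporter read as fluorescence of individual clusters on recovered sequencing chips by microscopy, with normalized cluster intensities fitted with a binding model.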

Sequence	apparent KD of K4 kissing-loop reporter (input ligand: FMN 200 uM) [nM]	apparent KD of K4 kissing-loop reporter (input ligand: arginine 13.2 mM) [nM]	apparent KD of K4 kissing-loop reporter (input ligand: none) [nM]	apparent KD of K4 kissing-loop reporter [1] [nM]	apparent KD of K4 kissing-loop reporter [2] [nM]
UCCAGCAGUACUGAUACCAGACUGCAUGUAGUGAUGUUGCAUAAGGGCAUAGAUGUCUCAGUCCCUUGGCAGCGGUACUGUUGCA [#09 K4 Theophylline B Same State]	379	294	325	251	286
UCCCGAGUGAUGUUCGGCGCGGUCACCGAAGGAGCGGGCGAAAGCCCAGGUAGGUCGCGGUAGCGGAGUGAUUCUCCGCGACCGC [Same State Arginine A GF 24]	509	241	286	344	298
UCCGAGCUUAUUGAUACCAGUUCGGCGAGCUACUAGAGUGAUGUUCUUGUAAGCGUACACAACCCUUGGCAGCAAUAGAGGAGGU [theeternabot_sameState_KL_Theo_B_37]	157	128	135	130	135
UCCGGUCGGUGAGCCAGUGAUGUUGGUCAGAAGGAUAUCUGGCAACAGAGAAGGUCUGCAUCAGCCUAGAUAUCCUGGCGACCGG	145	91.4	79	84.2	69.2
UCCUAGACUUAGCUAGGUAUAUAAUACGAUACCAGUCUAGAGAUAGACCCUUGGCAGCGUAGGCAGUGAUGUUGCCACUAGCUGA [Theo B SS t7a]	97.6	110	103	111	101
UCCUAGGACUUCAGGCGAAAGCCCUGCGAAGGAGCGUGCGAAAGCACAGGUAGGUCGCGCAGUGAUGUUGCACCUAGGUAAUAAA [#SwitchBubble 20 #K4Late]	481	656	489	1020	124
UCCUAGGCUCGAAAGAGCCUAGGAUUUACUCAGGAUAUCCGGAAACGGAGAAGGGAGUGACUAGUGAUGUUAGGGACUCCCUAUU	93.1	81.7	87.9	85.2	94.4
UCCUGCAAUCUGCCACGAAAGUGGAUGGAUACCAGAGUCGAAAGACUCCCUUGGCAGCCAGUGAUGUUGGAAGCAGGUAAAUAAA	268	396	454	460	271
UCCUUUUUUGCCAGUGAUGUUGGACAGGAAGGAGCGGGCAUAAGCCCAGGUAGGUCGCCUGUCAACUUUCUUAUAGCCCUAAGGU [Edveza]	271	226	236	210	245
UCGAAGGAUGGAAGGAGCGCUCGUCAGUCCUGCGAGUGAUGUUCGUGGGUAAAUAUUCGCGAGCAGGUAGGUCGCCAUCUUGAGA [Laatla]	135	96.7	112	108	129
UCGAUGGCCAGCGAUACCAGCCCAGUGAUGUUGGGCACAUGGUUGCGGGAAAUCCCAUUGGGCCCUUGGCAGCGCUUGCAUAGGU [Cezaat]	197	155	162	219	171
UCGGACCCUGGAGGAUAUGAGUCGAGUGAUGUUCGGCGGUCCAUGCCGAUGCGGCGUUAUGCCCUUUUAGAAGGCCAGGGUCCGA [#2 Exclusion - FMN B Attempt #10 (HarryS)]	498	216	277	268	264
UCGGACGCGCACCUAGGCCAAUCCACUGCGAAGGAUAUGCGCGCCAGCAGAAGGUCGUUUUAUGAGUGAUGUUUAGAAACAGCGU [theeternabot_exclusion_KL_FMN_A_25]	428	250	305	294	246
UCGGGCGGCUGAAGGAGCGGGCGGGCCCGAGUGAUGUUCGGGUGGGCUGUGAGGCCCGGAGCCCAGGUAGGUCGCGGUUCCGCCC [#2 Same State - Arginine B Attempt #28 (HarryS)]	262	181	157	168	158
UCUGUGUCCGCGGCCGCCACUCGGGACUAAGUGAUGUUUAGUCCUUCAGAAUAAAGAAGUGAUGAGAGGACCGGGCGAUCGCACC [theeternabot_sameState_KL_Trp_B_2]	100	81.9	99.6	72.3	102
UCUGUUGUAUAUGAUACCAGCAGUGAGAGACAGGAAGUAUAGUGAUGUUAUAUGAGAGAAUGCCCUUGGCAGCGUGUGCGGUUGG [SSTheophylB.W]	191	158	155	148	131

Sequence	apparent KD of K4 kissing-loop reporter (input ligand: FMN 200 uM) [nM]	apparent KD of K4 kissing-loop reporter (input ligand: arginine 13.2 mM) [nM]	apparent KD of K4 kissing-loop reporter (input ligand: none) [nM]	apparent KD of K4 kissing-loop reporter [1] [nM]	apparent KD of K4 kissing-loop reporter [2] [nM]
UCUGUUGUAUAUGAUACCAGCAGUGAGAGACGAGAAGUAUAGUGAUGUUAUAUGAGAGAAUGCCCUUGGCAGCGUGUGCGUGUGG [SSTheophylB.aB]	111	110	95.4	118	83.2
UGAACCGCCCAGUGAUGUUGGGCCAUAGAUACCAGCCUCUCCGACGGCCCUUGGCAGCUAGGGCCCGGCAGGUAGGAGACUCUGC [Orarzasove]	199	220	272	239	204
UGACAUUGCUCAGAUACCAGACAUGAGCAUCAGCCAUGUGCCAAAUAAACGUACAUAAAUGUCCCUUGGCAGCUGAGCAAUGUCU [TheoBX 11]	53	33.2	38.3	118	64.9
UGACUACAAAAGGAAUAAUCCUAGUGAUGUUAGGAUAUGCUGAUAAGCAGAAGGAACUGAGAUCGAAAGAUCUCAAAUGUAGUCU [FmnAX 25 Mat Inspired #SwitchBubble #StaticStem #K4Early]	116	89.1	92.3	103	93
UGACUGGACUGAAGGAGCGCGAAACUCCUAGUGAUGUUAGGAAUACGAGACAAAGUCUCGACGCAGGUAGGUCGCAGUCUAGUCU [ArgBS 16 #SwitchBubble #StaticStem]	115	94.5	113	110	100
UGACUGGACUGAAGGAGCGCGCGAGACAAAGUCUCGAACUGGUAGUGAUGUUAUCAAAUAACGCAGGUAGGUCGCAGUCUAGUCU [ArgBS 12 #SwitchBubble #StaticStem]	251	167	255	193	188
UGACUGGACUGAAGGAGCGUGGAAGGAGCGUAAGUAGUGAUGUUGCUUACAGGUAGGUCGCCGCAGGUAGGUCGCAGUCUAGUCU	62.5	47.4	56.5	53.6	63.5
UGACUGGACUGAAGGAGCGUUCAGGUAGGUCGCUAAGGAGUGAUGUUCCAUAGAAGGAGCGAACAGGUAGGUCGCAGUCUAGUCU [ArgBS 29 #DoubleAptamer #SwitchBubble]	139	169	163	190	102
UGACUGGACUGAAGGAGCGUUGAAGGAGCGUAAGUAGUGAUGUUGCUUACAGGUAGGUCGCAGCAGGUAGGUCGCAGUCUAGUCU	67.1	43.7	63	54.3	52.6
UGACUGGAUGGAAGGAGCGCUAAACUCCUAGUGAUGUUAGGGAAACGAGACAAAGUCUCGAGGCAGGUAGGUCGCCAUCUAGUCU [FiskerMod 15 - Jieux - Same State - Arginine B]	183	139	168	165	155
UGACUGGAUGGAAGGAGCGCUAAACUCCUAGUGAUGUUAGGGACACGAGACAAAGUCUCGAAGCAGGUAGGUCGCCAUCUAGUCU [FiskerMod 13 - Jieux - Same State - Arginine B]	219	156	160	352	166
UGACUGGAUGGAAGGAGCGCUAAACUCCUAGUGAUGUUAGGGACACGAGACAAAGUCUUGAAGCAGGUAGGUCGCCAUCUAGUCU [FiskerMod 9 - Jieux - Same State - Arginine B]	217	187	229	228	238
UGAUACCAGACGGCCGCCACUAGACCAGUCAAAGACUGGAUGUGAUGUUUGAGGAGUGAUGUUCCUAGGACCGGGUCUGGUAUCU [TrypBX 4 #Palindromic #SwitchBubble #StaticStem]	91.3	76.7	82.4	87.6	28.2
UGAUACCAGACGGCCGCCACUAGGACCGGGAGUGAUGUUCCGAAAAUUAAAUGCUCGGCCGCCACUAGGACCGGGUCUGGUAUCU [TrypBX 28 #DoubleAptamer #SwitchBubble]	478	253	308	349	128
UGAUACCAGACUGAUACCAGCAGUGAUGUUGCUGAUAAGGGUAGAGUCAAAGACUCUACCUGCCCUUGGCAGCAGUCUGGUAUCU [TheoBX 14 #SwitchBubble #StaticStem]	167	146	167	173	156
